Measured values as given in US20040038400A1 (TRUSTEES OF DARTMOUTH COLLEGE, published 2004).

Molecular target: T1, WC-1 (Neurospora, UniProt Q01371 1-1167)
T1 construct: Tested either as native protein in Neurospora nuclear extracts or as 'full-length WC-1' made in reticulocyte lysate; also called White Collar-1; WC-1 protein
Experiment: EMSA supershift with nuclear extracts; complexes absent with extracts from wc-1 ER45 or wc-2 KO strains
Excerpt: The presence of WC-1 and WC-2 in the LRE-bound complexes was confirmed by the absence of complexes in binding reactions performed using nuclear protein extracts from wc-1^ER45 (loss-of-function) or wc-2^KO strains (Collett, et al. (2002) Genetics 160:149). […] Because WC-1 and WC-2 are known to complex with FRQ (Denault, et al. (2001) EMBO J. 20:109; Cheng, et al. (2001) EMBO J. 20:101; Merrow, et al. (2001) EMBO J. 20:307), the presence of FRQ in the complexes bound to the LREs was also determined using FRQ antiserum and extracts from an frq^KO strain. FRQ was not in the dark- or light-induced complexes bound to the LREs, nor was FRQ necessary for the formation of the complexes.
Binding reactions using nuclear protein extracts contained 1× binding buffer, […] KCl, 0.1 μg poly(dI-dC), 1 μl probe, 0.5 μl of normal rabbit sera (Pocono Rabbit Farm, Canadensis, Pa.), and 3 μg of nuclear protein extract, which was added last to the binding reactions, in a total volume of 20 μl. In reactions that contained antisera, 1 μl anti-WC-1, 1 μl anti-WC-2, or 0.5 μl anti-FRQ was used. Binding reactions using in vitro translated proteins contained 1× binding buffer, 1 μg poly(dI-dC), 1 μl probe, and 6 μl of the in vitro translation reaction in a total volume of 20 μl. […]

T1 sequence (Q01371 whole entry): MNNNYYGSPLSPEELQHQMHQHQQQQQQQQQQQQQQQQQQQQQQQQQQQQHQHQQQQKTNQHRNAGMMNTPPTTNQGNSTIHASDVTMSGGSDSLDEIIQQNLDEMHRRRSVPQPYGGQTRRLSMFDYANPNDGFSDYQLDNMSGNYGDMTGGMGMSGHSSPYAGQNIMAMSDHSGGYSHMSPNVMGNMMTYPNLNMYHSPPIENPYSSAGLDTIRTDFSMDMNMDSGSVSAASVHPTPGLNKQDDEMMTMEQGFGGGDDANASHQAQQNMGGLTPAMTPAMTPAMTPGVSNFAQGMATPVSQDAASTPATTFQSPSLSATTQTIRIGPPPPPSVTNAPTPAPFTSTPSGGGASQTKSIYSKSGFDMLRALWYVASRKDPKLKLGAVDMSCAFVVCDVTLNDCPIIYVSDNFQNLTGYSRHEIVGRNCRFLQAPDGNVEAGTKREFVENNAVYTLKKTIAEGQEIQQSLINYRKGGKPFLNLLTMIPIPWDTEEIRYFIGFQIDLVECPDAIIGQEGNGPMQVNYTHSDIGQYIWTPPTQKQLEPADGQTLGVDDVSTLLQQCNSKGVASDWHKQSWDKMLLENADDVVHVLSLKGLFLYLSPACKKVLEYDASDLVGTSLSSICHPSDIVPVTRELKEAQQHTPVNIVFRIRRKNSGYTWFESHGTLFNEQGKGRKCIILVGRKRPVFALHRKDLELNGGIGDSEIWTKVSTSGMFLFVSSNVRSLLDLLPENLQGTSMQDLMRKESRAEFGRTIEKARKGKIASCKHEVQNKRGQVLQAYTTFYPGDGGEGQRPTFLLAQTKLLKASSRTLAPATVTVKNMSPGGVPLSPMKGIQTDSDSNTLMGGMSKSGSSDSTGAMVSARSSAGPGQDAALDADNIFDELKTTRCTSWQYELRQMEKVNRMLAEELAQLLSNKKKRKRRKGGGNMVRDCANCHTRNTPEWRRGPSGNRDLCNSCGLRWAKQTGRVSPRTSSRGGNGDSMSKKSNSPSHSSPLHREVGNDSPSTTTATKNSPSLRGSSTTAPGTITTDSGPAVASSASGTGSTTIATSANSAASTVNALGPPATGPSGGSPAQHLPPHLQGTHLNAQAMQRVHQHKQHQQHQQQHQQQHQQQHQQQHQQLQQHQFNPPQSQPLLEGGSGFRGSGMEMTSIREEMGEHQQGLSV

binding result: binds
B1: WC-2 (other, Neurospora, UniProt P78714 1-530, looked up)
chain: MSHGQPPPGSSMYGFGAMGMGSGMGSGMGSGMGTGMGTGMGTGMSASQMTSDPQDMMSLLDTSVFPGFDGMSMSLDVGDSMSNPFTPVSVPPPLPAGNAGPSHVGVCGGHGAPDQLFSPDDLIATSMSSAGPMIATPTTTTSGPSGGPSSGGGSTLTEFTKRRNWPAKVVEELQDWEHILDANGRIKHVSPSVEPLTGYKPPEIIDLFLRDLIHPDDVGVFTAELNEAIATGSQLRLFYRFRKKDGNWTIFETVGHAHIAAAKFAPNPQNQSPFCQAVFMMARPYPTKNAGLLDSFLEHKIENERLKRRIAELRREEQEEQEESHRTWRMSQEGRSDVTPSDDTATQMGMTPFYIPMNAQADVMMPPPSQPASSLNIALTRENLEGIAGSRPDSIREKMLRYEGNHADTIEMLTGLKYQEGERSHGITTGNASPTLIKGDAGIAIPLDRDPRTGEKKKKIKVAEEYVCTDCGTLDSPEWRKGPSGPKTLCNACGLRWAKKEKKKNANNNNNGGGIGGHNDIHTPMGDHMG
notes: Transcription factor; Tested either as native protein in Neurospora nuclear extracts or as 'full length WC-2' made in reticulocyte lysate; also called White Collar-2; WC-2 protein
